According to patent US20170158755A1 (PROTHENA BIOSCIENCES, published 2017):

B1: mouse MCAM-Fc fusion protein (Fc fusion, UniProt Q8R2Y2 24-563, looked up)
chain: VPGEEKQPVPTPDLVEAEVGSTALLKCGPSRASGNFSQVDWFLIHKERQILIFRVHQGKGQREPGEYEHRLSLQDSVATLALSHVTPHDERMFLCKSKRPRLQDHYVELQVFKAPEEPTIQANVVGIHVDRQELREVATCVGRNGYPIPQVLWYKNSLPLQEEENRVHIQSSQIVESSGLYTLKSVLSARLVKEDKDAQFYCELSYRLPSGNHMKESKEVTVPVFYPAEKVWVEVEPVGLLKEGDHVTIRCLTDGNPQPHFTINKKDPSTGEMEEESTDENGLLSLEPAEKHHSGLYQCQSLDLETTITLSSDPLELLVNYVSDVQVNPTAPEVQEGESLTLTCEAESNQDLEFEWLRDKTGQLLGKGPVLQLNNVRREAGGRYLCMASVPRVPGLNRTQLVSVGIFGSPWMALKERKVWVQENAVLNLSCEASGHPQPTISWNVNGSATEWNPDPQTVVSTLNVLVTPELLETGAECTASNSLGSNTTTIVLKLVTLTTLIPDSSQTTGLSTLTVSPHTRANSTSTEKKLPQPESKGVV
notes: extracellular domain; Made in house; also called mMCAM-Fc; 650-conjugated mouse MCAM-Fc; not shown: human IgG1 (Fc part of the fusion)
B2: mouse monoclonal antibody 19C12 (antibody, V domains shown)
VH: QVQLQQSGAELVKPGASVKISCKASGYAFSTYWMNWVKQRPGEGLEWIGQIYPGDGDTNYNGKFKGKATLTADKSSSTAYMQLSSLTSEDSAVYFCARSDGYYDYWGQGTTLTVSS
VL: NIVLTQSPASLAVSLGQRATISCRASESVDSYGTSFMHWYQQKPGQPPKLLICLASSLESGVPARFSGSGSRTDFTLTIDPVEADDAATYYCQQNNEDPPTFGAGTKLELKR
notes: Mouse hybridoma antibody; Mouse IgG2b was used as its isotype control; also called m19C12

How the values were obtained:
[1] = target: T1, human LAMA4 G domain (LG1-5) displayed on 293 cells (human, UniProt Q16363 830-1821); assay: flow cytometry on 293 cells displaying LAMA4 G-domain variants; % binding
T1 construct: the vector's tags and membrane anchor are not written here; also called LAMA4-displaying human 293 cells; full length
T1 sequence: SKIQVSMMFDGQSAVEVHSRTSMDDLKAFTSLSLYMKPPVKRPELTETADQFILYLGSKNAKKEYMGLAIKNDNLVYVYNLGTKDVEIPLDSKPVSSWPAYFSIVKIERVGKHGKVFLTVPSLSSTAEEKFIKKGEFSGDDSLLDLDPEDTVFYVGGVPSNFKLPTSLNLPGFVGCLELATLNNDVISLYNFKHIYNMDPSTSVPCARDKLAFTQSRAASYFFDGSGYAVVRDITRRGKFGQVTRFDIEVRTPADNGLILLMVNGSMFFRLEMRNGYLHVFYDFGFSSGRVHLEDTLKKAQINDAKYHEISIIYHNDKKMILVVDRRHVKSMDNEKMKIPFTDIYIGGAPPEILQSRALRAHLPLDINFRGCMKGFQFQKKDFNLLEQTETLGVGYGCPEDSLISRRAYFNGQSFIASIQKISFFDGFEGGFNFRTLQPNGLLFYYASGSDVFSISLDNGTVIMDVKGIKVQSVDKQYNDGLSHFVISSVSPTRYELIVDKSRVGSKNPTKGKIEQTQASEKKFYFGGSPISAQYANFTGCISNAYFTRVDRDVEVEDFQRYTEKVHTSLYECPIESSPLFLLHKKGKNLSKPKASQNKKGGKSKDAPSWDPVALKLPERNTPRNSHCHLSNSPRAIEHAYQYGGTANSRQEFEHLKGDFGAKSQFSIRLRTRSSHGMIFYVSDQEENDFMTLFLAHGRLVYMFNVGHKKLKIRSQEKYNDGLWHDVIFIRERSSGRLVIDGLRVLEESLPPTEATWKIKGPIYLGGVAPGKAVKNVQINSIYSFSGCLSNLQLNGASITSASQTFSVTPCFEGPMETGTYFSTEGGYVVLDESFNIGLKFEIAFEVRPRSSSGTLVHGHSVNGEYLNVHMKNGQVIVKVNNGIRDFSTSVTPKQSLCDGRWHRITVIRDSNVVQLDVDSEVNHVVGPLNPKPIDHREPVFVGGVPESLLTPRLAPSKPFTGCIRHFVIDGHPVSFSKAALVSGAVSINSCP
Text: LGde1 has a full-length G domain (i.e., LG1-5) with LG1 deleted, LGde2 has a full-length G domain with LG2 deleted, and LGde3 has a full-length G domain with LG3 deleted. Recombinant MCAM-Fc protein was able to specifically bind 293 cells expressing LAMA4 variants LG1-5, LG1-3, and LGde 1 (LG23), but not 293 cells expressing LAMA 4 variants LG4-5, LGde2 (LG13), or LGde3 (LG12).

[2] = target: T1, human LAMA4 G domain (LG1-5) displayed …; assay: LAMA4 pDisplay flow cytometric blocking assay on LAMA4-displaying 293 cells; blocked ligand: 650-conjugated mouse MCAM-Fc
mouse His-laminin-α4 = target: T2, mouse His-laminin-α4 (mouse, UniProt P97927 826-1816, limits assumed); assay: ELISA hMCAM-Fc capture blocking assay; antibody pre-incubated with mouse LAMA4-His; blocked partner: captured hMCAM-Fc
T2 construct: Bought His-tagged recombinant protein; also called Murine LAMA4; recombinant mouse LAMA4-His
T2 sequence (looked up): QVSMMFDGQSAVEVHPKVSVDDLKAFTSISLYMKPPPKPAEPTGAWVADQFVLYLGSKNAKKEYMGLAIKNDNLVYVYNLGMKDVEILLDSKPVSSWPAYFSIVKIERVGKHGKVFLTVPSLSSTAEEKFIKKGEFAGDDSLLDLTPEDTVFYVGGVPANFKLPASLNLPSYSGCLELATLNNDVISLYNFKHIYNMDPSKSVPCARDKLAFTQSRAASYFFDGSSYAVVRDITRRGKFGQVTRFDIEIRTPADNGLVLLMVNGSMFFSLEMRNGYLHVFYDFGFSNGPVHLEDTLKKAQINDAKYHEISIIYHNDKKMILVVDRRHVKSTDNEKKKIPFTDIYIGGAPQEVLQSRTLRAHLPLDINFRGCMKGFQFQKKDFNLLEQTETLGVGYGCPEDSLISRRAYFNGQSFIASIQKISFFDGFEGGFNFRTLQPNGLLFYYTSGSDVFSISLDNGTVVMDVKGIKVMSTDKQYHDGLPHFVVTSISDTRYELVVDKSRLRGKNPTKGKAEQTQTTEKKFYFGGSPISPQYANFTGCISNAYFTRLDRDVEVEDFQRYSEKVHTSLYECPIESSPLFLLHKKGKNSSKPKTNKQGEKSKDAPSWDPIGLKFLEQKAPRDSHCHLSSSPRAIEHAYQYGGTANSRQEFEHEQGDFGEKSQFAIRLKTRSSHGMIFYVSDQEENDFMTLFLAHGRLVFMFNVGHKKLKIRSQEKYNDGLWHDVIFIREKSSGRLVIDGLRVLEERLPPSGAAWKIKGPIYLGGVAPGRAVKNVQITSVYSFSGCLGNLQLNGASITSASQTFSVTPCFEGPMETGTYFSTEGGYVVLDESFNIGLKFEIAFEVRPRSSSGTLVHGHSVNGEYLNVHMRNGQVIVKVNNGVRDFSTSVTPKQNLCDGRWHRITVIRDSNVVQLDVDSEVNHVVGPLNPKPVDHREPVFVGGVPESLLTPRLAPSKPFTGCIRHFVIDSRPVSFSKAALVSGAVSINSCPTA

| Binder | binding result [1] | IC50 (read off the curve) [2] [µg/mL] | IC50 (read off the curve) (mouse His-laminin-α4) [µg/mL] |
| --- | --- | --- | --- |
| B1 | binds |  |  |
| B2 |  | ~0.03 | ~0.1 |
